According to patent US20190241669A1 (published 2019):

Tests used:
[1] = target: Human BCMA (human) (UniProt Q02223); assay: SPR, IgG immobilised, huBCMA analyte, 37 C
[2] = target: T1, cynomolgus monkey BCMA (cynomolgus monkey, UniProt A0A2K5UD97 1-53); assay: SPR, IgG on chip, cyBCMA analyte, 37C
T1 construct: Soluble analyte in SPR; construct not described; also called cyBCMA; Cyno BCMA
T1 sequence (A0A2K5UD97 entry or part of it): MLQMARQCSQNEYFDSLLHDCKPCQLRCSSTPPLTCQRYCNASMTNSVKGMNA

Row | Binder | Kd [1] | T½ [1] | koff [1] | kon [1] | Kd [2] | T½ [2] | koff [2] | kon [2]
1 | L3.PY/L3.KF/H3.AQ (antibody, V domains shown, IgG) VH: EVQLLESGGGLVQPGGSLRLSCAASGFTFGSYAMTWVRQAPGKGLEWVSAISGSGGNTFYADSVKGRFTISRDNSKNTLYLQMNSLRAEDTAVYYCARVSPIAAQMDYWGQGTLVTVSS VL: EIVLTQSPGTLSLSPGERATLSCRASQSVSSSYLAWYQQKPGQAPRLLIYGASSRATGIPDRFSGSGSGTDFTLTISRLEPEDFAVYYCKFYPYPPSFTFGQGTKVEIK | 650 pM | 5.09 min | 0.00227 s⁻¹ | 3.48e+06 M⁻¹ s⁻¹ | 930 pM | 4.85 min | 0.00238 s⁻¹ | 2.55e+06 M⁻¹ s⁻¹
2 | L3.PY/L1.AH/H3.TAQ (antibody, V domains shown, IgG) VH: EVQLLESGGGLVQPGGSLRLSCAASGFTFGSYAMTWVRQAPGKGLEWVSAISGSGGNTFYADSVKGRFTISRDNSKNTLYLQMNSLRAEDTAVYYCTRVSPIAAQMDYWGQGTLVTVSS VL: EIVLTQSPGTLSLSPGERATLSCRASQSVSAHYLAWYQQKPGQAPRLLIYGASSRATGIPDRFSGSGSGTDFTLTISRLEPEDFAVYYCQHYPYPPSFTFGQGTKVEIK | 370 pM | 9.68 min | 0.00119 s⁻¹ | 3.27e+06 M⁻¹ s⁻¹ | 1320 pM | 3.83 min | 0.00302 s⁻¹ | 2.28e+06 M⁻¹ s⁻¹
3 | L3.PY/L1.FF/H2.DY (antibody, V domains shown, IgG) VH: EVQLLESGGGLVQPGGSLRLSCAASGFTFGSYAMTWVRQAPGKGLEWVSAIDYSGGNTFYADSVKGRFTISRDNSKNTLYLQMNSLRAEDTAVYYCARVSPIASGMDYWGQGTLVTVSS VL: EIVLTQSPGTLSLSPGERATLSCRASQSVSSFFLAWYQQKPGQAPRLLIYGASSRATGIPDRFSGSGSGTDFTLTISRLEPEDFAVYYCQHYPYPPSFTFGQGTKVEIK | 650 pM | 4.27 min | 0.00271 s⁻¹ | 4.14e+06 M⁻¹ s⁻¹ | 1880 pM | 2.31 min | 0.005 s⁻¹ | 2.66e+06 M⁻¹ s⁻¹
4 | L3.PY/L1.FF/H2.HA (antibody, V domains shown, IgG) VH: EVQLLESGGGLVQPGGSLRLSCAASGFTFGSYAMTWVRQAPGKGLEWVSAISHAGGNTFYADSVKGRFTISRDNSKNTLYLQMNSLRAEDTAVYYCARVSPIASGMDYWGQGTLVTVSS VL: EIVLTQSPGTLSLSPGERATLSCRASQSVSSFFLAWYQQKPGQAPRLLIYGASSRATGIPDRFSGSGSGTDFTLTISRLEPEDFAVYYCQHYPYPPSFTFGQGTKVEIK | 630 pM | 5.29 min | 0.00219 s⁻¹ | 3.49e+06 M⁻¹ s⁻¹ | 1790 pM | 2.77 min | 0.00417 s⁻¹ | 2.33e+06 M⁻¹ s⁻¹
5 | L3.PY/L1.FF/H2.LT (antibody, V domains shown, IgG) VH: EVQLLESGGGLVQPGGSLRLSCAASGFTFGSYAMTWVRQAPGKGLEWVSAISLTGGNTFYADSVKGRFTISRDNSKNTLYLQMNSLRAEDTAVYYCARVSPIASGMDYWGQGTLVTVSS VL: EIVLTQSPGTLSLSPGERATLSCRASQSVSSFFLAWYQQKPGQAPRLLIYGASSRATGIPDRFSGSGSGTDFTLTISRLEPEDFAVYYCQHYPYPPSFTFGQGTKVEIK | 510 pM | 6.92 min | 0.00167 s⁻¹ | 3.3e+06 M⁻¹ s⁻¹ | 1560 pM | 3.38 min | 0.00341 s⁻¹ | 2.19e+06 M⁻¹ s⁻¹
6 | L3.PY/L1.FF/H2.QL (antibody, V domains shown, IgG) VH: EVQLLESGGGLVQPGGSLRLSCAASGFTFGSYAMTWVRQAPGKGLEWVSAISGSGGNTFYADQLKGRFTISRDNSKNTLYLQMNSLRAEDTAVYYCARVSPIASGMDYWGQGTLVTVSS VL: EIVLTQSPGTLSLSPGERATLSCRASQSVSSFFLAWYQQKPGQAPRLLIYGASSRATGIPDRFSGSGSGTDFTLTISRLEPEDFAVYYCQHYPYPPSFTFGQGTKVEIK | 400 pM | 8.28 min | 0.0014 s⁻¹ | 3.48e+06 M⁻¹ s⁻¹ | 1910 pM | 2.57 min | 0.00449 s⁻¹ | 2.36e+06 M⁻¹ s⁻¹
7 | L3.PY/L1.FF/H2.QR (antibody, V domains shown, IgG) VH: EVQLLESGGGLVQPGGSLRLSCAASGFTFGSYAMTWVRQAPGKGLEWVSAISGSGGNTFYADQRKGRFTISRDNSKNTLYLQMNSLRAEDTAVYYCARVSPIASGMDYWGQGTLVTVSS VL: EIVLTQSPGTLSLSPGERATLSCRASQSVSSFFLAWYQQKPGQAPRLLIYGASSRATGIPDRFSGSGSGTDFTLTISRLEPEDFAVYYCQHYPYPPSFTFGQGTKVEIK | 510 pM | 6.54 min | 0.00177 s⁻¹ | 3.47e+06 M⁻¹ s⁻¹ | 1650 pM | 2.75 min | 0.00421 s⁻¹ | 2.55e+06 M⁻¹ s⁻¹
8 | L3.PY/L1.FF/H2.YQ (antibody, V domains shown, IgG) VH: EVQLLESGGGLVQPGGSLRLSCAASGFTFGSYAMTWVRQAPGKGLEWVSAISYQGGNTFYADSVKGRFTISRDNSKNTLYLQMNSLRAEDTAVYYCARVSPIASGMDYWGQGTLVTVSS VL: EIVLTQSPGTLSLSPGERATLSCRASQSVSSFFLAWYQQKPGQAPRLLIYGASSRATGIPDRFSGSGSGTDFTLTISRLEPEDFAVYYCQHYPYPPSFTFGQGTKVEIK | 460 pM | 7.61 min | 0.00152 s⁻¹ | 3.32e+06 M⁻¹ s⁻¹ | 1490 pM | 3.55 min | 0.00326 s⁻¹ | 2.19e+06 M⁻¹ s⁻¹
9 | L3.PY/L1.FF/H3.AE (antibody, V domains shown, IgG) VH: EVQLLESGGGLVQPGGSLRLSCAASGFTFGSYAMTWVRQAPGKGLEWVSAISGSGGNTFYADSVKGRFTISRDNSKNTLYLQMNSLRAEDTAVYYCARVSPIAAEMDYWGQGTLVTVSS VL: EIVLTQSPGTLSLSPGERATLSCRASQSVSSFFLAWYQQKPGQAPRLLIYGASSRATGIPDRFSGSGSGTDFTLTISRLEPEDFAVYYCQHYPYPPSFTFGQGTKVEIK | 690 pM | 4.39 min | 0.00263 s⁻¹ | 3.82e+06 M⁻¹ s⁻¹ | 1760 pM | 2.31 min | 0.00501 s⁻¹ | 2.85e+06 M⁻¹ s⁻¹
10 | L3.PY/L1.FF/H3.AQ (antibody, V domains shown, IgG) VH: EVQLLESGGGLVQPGGSLRLSCAASGFTFGSYAMTWVRQAPGKGLEWVSAISGSGGNTFYADSVKGRFTISRDNSKNTLYLQMNSLRAEDTAVYYCARVSPIAAQMDYWGQGTLVTVSS VL: EIVLTQSPGTLSLSPGERATLSCRASQSVSSFFLAWYQQKPGQAPRLLIYGASSRATGIPDRFSGSGSGTDFTLTISRLEPEDFAVYYCQHYPYPPSFTFGQGTKVEIK | 460 pM | 7.51 min | 0.00154 s⁻¹ | 3.32e+06 M⁻¹ s⁻¹ | 1510 pM | 3.51 min | 0.00329 s⁻¹ | 2.18e+06 M⁻¹ s⁻¹
11 | L3.PY/L1.FF/H3.TAQ (antibody, V domains shown, IgG) VH: EVQLLESGGGLVQPGGSLRLSCAASGFTFGSYAMTWVRQAPGKGLEWVSAISGSGGNTFYADSVKGRFTISRDNSKNTLYLQMNSLRAEDTAVYYCTRVSPIAAQMDYWGQGTLVTVSS VL: EIVLTQSPGTLSLSPGERATLSCRASQSVSSFFLAWYQQKPGQAPRLLIYGASSRATGIPDRFSGSGSGTDFTLTISRLEPEDFAVYYCQHYPYPPSFTFGQGTKVEIK | 540 pM | 6.12 min | 0.00189 s⁻¹ | 3.52e+06 M⁻¹ s⁻¹ | 1620 pM | 3.07 min | 0.00376 s⁻¹ | 2.32e+06 M⁻¹ s⁻¹
12 | L3.PY/L1.FF/H3.YA (antibody, V domains shown, IgG) VH: EVQLLESGGGLVQPGGSLRLSCAASGFTFGSYAMTWVRQAPGKGLEWVSAISGSGGNTFYADSVKGRFTISRDNSKNTLYLQMNSLRAEDTAVYYCARVSPIYAGMDYWGQGTLVTVSS VL: EIVLTQSPGTLSLSPGERATLSCRASQSVSSFFLAWYQQKPGQAPRLLIYGASSRATGIPDRFSGSGSGTDFTLTISRLEPEDFAVYYCQHYPYPPSFTFGQGTKVEIK | 510 pM | 6.41 min | 0.0018 s⁻¹ | 3.5e+06 M⁻¹ s⁻¹ | 1690 pM | 2.77 min | 0.00416 s⁻¹ | 2.46e+06 M⁻¹ s⁻¹
13 | L3.PY/L1.PH/H2.HA (antibody, V domains shown, IgG) VH: EVQLLESGGGLVQPGGSLRLSCAASGFTFGSYAMTWVRQAPGKGLEWVSAISHAGGNTFYADSVKGRFTISRDNSKNTLYLQMNSLRAEDTAVYYCARVSPIASGMDYWGQGTLVTVSS VL: EIVLTQSPGTLSLSPGERATLSCRASQSVSPHYLAWYQQKPGQAPRLLIYGASSRATGIPDRFSGSGSGTDFTLTISRLEPEDFAVYYCQHYPYPPSFTFGQGTKVEIK | 490 pM | 9.99 min | 0.00116 s⁻¹ | 2.37e+06 M⁻¹ s⁻¹ | 3440 pM | 2.09 min | 0.00553 s⁻¹ | 1.61e+06 M⁻¹ s⁻¹
14 | L3.PY/L1.PH/H2.QR (antibody, V domains shown, IgG) VH: EVQLLESGGGLVQPGGSLRLSCAASGFTFGSYAMTWVRQAPGKGLEWVSAISGSGGNTFYADQRKGRFTISRDNSKNTLYLQMNSLRAEDTAVYYCARVSPIASGMDYWGQGTLVTVSS VL: EIVLTQSPGTLSLSPGERATLSCRASQSVSPHYLAWYQQKPGQAPRLLIYGASSRATGIPDRFSGSGSGTDFTLTISRLEPEDFAVYYCQHYPYPPSFTFGQGTKVEIK | 640 pM | 4.89 min | 0.00236 s⁻¹ | 3.69e+06 M⁻¹ s⁻¹ | 1800 pM | 2.65 min | 0.00436 s⁻¹ | 2.42e+06 M⁻¹ s⁻¹
15 | L3.PY/L1.PH/H3.AE (antibody, V domains shown, IgG) VH: EVQLLESGGGLVQPGGSLRLSCAASGFTFGSYAMTWVRQAPGKGLEWVSAISGSGGNTFYADSVKGRFTISRDNSKNTLYLQMNSLRAEDTAVYYCARVSPIAAEMDYWGQGTLVTVSS VL: EIVLTQSPGTLSLSPGERATLSCRASQSVSPHYLAWYQQKPGQAPRLLIYGASSRATGIPDRFSGSGSGTDFTLTISRLEPEDFAVYYCQHYPYPPSFTFGQGTKVEIK | 360 pM | 8.61 min | 0.00134 s⁻¹ | 3.68e+06 M⁻¹ s⁻¹ | 770 pM | 5.72 min | 0.00202 s⁻¹ | 2.61e+06 M⁻¹ s⁻¹
16 | L3.PY/L1.PH/H3.AQ (antibody, V domains shown, IgG) VH: EVQLLESGGGLVQPGGSLRLSCAASGFTFGSYAMTWVRQAPGKGLEWVSAISGSGGNTFYADSVKGRFTISRDNSKNTLYLQMNSLRAEDTAVYYCARVSPIAAQMDYWGQGTLVTVSS VL: EIVLTQSPGTLSLSPGERATLSCRASQSVSPHYLAWYQQKPGQAPRLLIYGASSRATGIPDRFSGSGSGTDFTLTISRLEPEDFAVYYCQHYPYPPSFTFGQGTKVEIK | 520 pM | 7.27 min | 0.00159 s⁻¹ | 3.08e+06 M⁻¹ s⁻¹ | 1500 pM | 3.39 min | 0.00341 s⁻¹ | 2.28e+06 M⁻¹ s⁻¹
